Targets include BAKΔC; BCL-XLΔC; BFL-1/A1ΔC.
Holding throughout (assay): fluorescence polarisation
Assay [1] has as its target MCL-1ΔNΔC (residues 172–327) (UniProt Q07820).
The target of assay [2] is BAX (recombinant, tagless, full-length) (human) (UniProt Q07812).
Chain of BAX (recombinant, tagless, full-length) (human) (Q07812 whole entry): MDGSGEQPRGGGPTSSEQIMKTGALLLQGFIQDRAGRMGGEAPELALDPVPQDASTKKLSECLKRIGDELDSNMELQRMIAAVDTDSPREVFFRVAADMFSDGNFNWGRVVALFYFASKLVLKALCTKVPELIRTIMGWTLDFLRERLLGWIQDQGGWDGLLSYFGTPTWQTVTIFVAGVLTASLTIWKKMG

Chain of MCL-1ΔNΔC (residues 172–327) (Q07820 172-327, stated change not applied): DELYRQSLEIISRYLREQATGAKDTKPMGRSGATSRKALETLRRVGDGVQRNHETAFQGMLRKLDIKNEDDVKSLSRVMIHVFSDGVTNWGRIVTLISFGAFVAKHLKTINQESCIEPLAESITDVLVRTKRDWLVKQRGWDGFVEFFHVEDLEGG
Chain of BCL-XLΔC (Q07817 1-209, stated change not applied): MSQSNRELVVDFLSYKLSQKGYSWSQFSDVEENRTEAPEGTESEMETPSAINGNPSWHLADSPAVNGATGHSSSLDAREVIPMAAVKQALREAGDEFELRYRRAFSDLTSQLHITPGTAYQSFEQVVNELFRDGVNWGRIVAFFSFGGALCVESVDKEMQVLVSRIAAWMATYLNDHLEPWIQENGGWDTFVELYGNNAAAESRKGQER

With “FITC-BIM SAHB (fluoresceinated stabilized α-helix of BCL-2 domain modeled after BIM BH3) (peptide)”, the EC50 worked out at 19.8 nM in assay [1], 283 nM in assay [2] and 173 nM with BAKΔC.

Consider “N-terminally acetylated BIM SAHB (peptide)”, for which the IC50 amounted to 136 nM in assay [1], 572 nM in the assay with BCL-XLΔC, 314 nM in assay [2] and 827 nM with BAKΔC.

In the case of “N-terminally acetylated BIM SAHB (peptide; other documents disagree on this pair)”, in the assay with BFL-1/A1ΔC, the IC50 is 603 nM.

Broadly, the EC50 is the concentration that produces a half-maximal response. As a reminder, the IC50 is the concentration that gives 50% inhibition.

The record behind these values is publication PMC3617124.
